Measurements published in patent US20240228627A1, “GALECTIN-1-SPECIFIC MONOVALENT ANTIBODIES AND USES THEREOF” (INSTITUT NATIONAL DE LA RECHERCHE SCIENTIFIQUE, priority 2021, published 2024).
Entries after “also recorded” stand apart in the source; their conditions may differ.

B1: G1N1 nanobody (galectin-1-specific VHH, clone D06) (VHH)
VHH: EVQLQASGGGFVQPGGSLRLSCAASGSTFSEDAMGWFRQAPGKEREFVSAISGFANPHSYYADSVKGRFTISRDNSKNTVYLQMNSLRAEDTATYYCAASHKKTRAPAATFETYWGQGTQVTVSS
notes: From a synthetic humanized nanobody library (hsd2Ab); For apoptosis, MST and ELISA it was made in E. coli from pHEN2 with 6xHis and cMyc tags; also called GAL-1-specific Nb #1; lead VHH clone G1N1; not shown: 6xHis and cMyc tags from vector pHEN2
B2: G1N1: galectin-1-specific single-domain camelid VHH nanobody, SEQ ID NO:8; lead clone from phage display of a humanized synthetic library (protein)
VHH: MAEVQLQASGGGFVQPGGSLRLSCAASGSTFSEDAMGWFRQAPGKEREFVSAISGFANPHSYYADSVKGRFTISRDNSKNTVYLQMNSLRAEDTATYYCAASHKKTRAPAATFETYWGQGTQVTVSS
modifications: full sequence of G1N1 VHH

Assays:
mouse galectin-7 = target: T1, mouse galectin-7 (mouse, UniProt O54974 1-136, limits assumed); assay: microscale thermophoresis, Red-NHS labeled G1N1 (2 nM)
T1 construct: also called mouse GAL-7
T1 sequence (looked up): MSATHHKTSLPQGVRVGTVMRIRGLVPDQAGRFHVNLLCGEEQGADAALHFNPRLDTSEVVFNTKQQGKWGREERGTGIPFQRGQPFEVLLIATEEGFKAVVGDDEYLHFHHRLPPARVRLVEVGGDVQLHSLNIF
Protocol: (§1) FIG. 9A: Red-NHS labeled human GAL-1 (5 nM) incubated with G1N1 or alpha-lactose (a-lactose). […] In the same experiment, no binding was detected at 10 μM for human GAL-7, mouse GAL-7, human GAL-8 and human GAL-13. All experiments were performed in 20 mM Tris-HCl 150 mM NaCl and 0.1% F127. Binding affinities (Kd values) were determined from the fitted curves (three parameter dose-response curve) obtained from data of at least 3 independent experiments. For each value, 95% confidence intervals (Cl) are indicated.

human galectin-13 = target: T2, human galectin-13 (human, UniProt Q9UHV8 1-139); assay: ELISA, human galectin-13 immobilized at 1 µM, anti-His-tag detection [left panel (1 µM]
T2 construct: Recombinant, made in E. coli; also called human GAL-13; Gal-13
T2 sequence: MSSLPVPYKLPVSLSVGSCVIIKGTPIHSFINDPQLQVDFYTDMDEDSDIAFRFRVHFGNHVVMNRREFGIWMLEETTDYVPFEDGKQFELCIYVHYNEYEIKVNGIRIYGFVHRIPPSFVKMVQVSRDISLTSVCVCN
Protocol: (§2) Briefly, human galectins were immobilized at 1 and 5 μM for 16 h at 4° C. After a blocking step with PBS containing 10% (v/v) BSA (blocking buffer), increasing concentrations of G1N1 were added to each well and incubated for 1 h at room T° C. […] The colorimetric assay was carried out with 3,3′,5,5′-tetramethylbenzidine (Sigma-Aldrich, ON, Canada) according to the manufacturers recommendations.
(§3) ELISA assays. Recombinant human galectins were immobilized in 96-well plates at the indicated concentrations for 16 h at 4° C. After a blocking step with PBS containing 10% (v/v) bovine serum albumin (BSA) (blocking buffer), increasing concentrations of G1N1 were added to each well and incubated for 1 h at room temperature. […] The colorimetric assay was carried out with TMB (Sigma-Aldrich, MO, USA) according to the manufacturer's recommendations.

human galectin-2 = target: T3, human galectin-2 (human, UniProt P05162 1-132); assay: ELISA, human galectin-2 immobilized at 1 µM, anti-His-tag detection [left panel (1 µM]
T3 construct: Recombinant, made in E. coli; also called Gal-2
T3 sequence: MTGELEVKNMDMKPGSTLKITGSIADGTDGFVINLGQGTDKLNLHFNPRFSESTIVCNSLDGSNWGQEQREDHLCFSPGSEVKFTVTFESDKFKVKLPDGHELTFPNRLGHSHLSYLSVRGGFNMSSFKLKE
Protocol: as §2, §3

[1] = target: T4, recombinant mouse galectin-1 (mouse, UniProt P16045 2-135); assay: microscale thermophoresis, Red-NHS labeled G1N1 (2 nM), mouse galectin-1 titrated; value in brackets is the 95% CI
T4 construct: also called mGAL-1
T4 sequence (P16045 2-135 limits assumed): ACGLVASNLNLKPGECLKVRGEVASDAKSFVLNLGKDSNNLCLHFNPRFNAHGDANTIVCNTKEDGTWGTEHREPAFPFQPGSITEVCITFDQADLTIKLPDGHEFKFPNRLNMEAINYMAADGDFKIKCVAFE

[2] = target: T5, recombinant human galectin-1 (human, UniProt P09382 2-135); assay: microscale thermophoresis, Red-NHS labeled human GAL-1 (5 nM), G1N1 titrated; value in brackets is the 95% CI
T5 construct: Recombinant, made in E. coli BL21(DE3) from pET-22b(+); also called hGAL-1; GAL-1
T5 sequence (P09382 2-135 limits assumed): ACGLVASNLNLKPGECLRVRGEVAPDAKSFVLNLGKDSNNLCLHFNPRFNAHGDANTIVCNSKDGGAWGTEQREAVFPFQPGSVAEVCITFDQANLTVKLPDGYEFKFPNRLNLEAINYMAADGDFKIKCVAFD
Protocol: as §1

[3] = target: T5, recombinant human galectin-1; assay: microscale thermophoresis, Red-NHS labeled G1N1 (2 nM), human galectin-1 titrated; value in brackets is the 95% CI
Protocol: as §1, with “FIG.” for “FIG. 9A: Red-NHS labeled human GAL-1 (5 nM) incubated with G1N1 or alpha-lactose (a-lactose).”

[4] = target: T5, recombinant human galectin-1; assay: microscale thermophoresis (MST), Red-NHS labeled human GAL-1 (5 nM) with G1N1 or alpha-lactose
Protocol: as §1

human galectin-7 = target: T6, human galectin-7 (human, UniProt P47929 1-136); assay: ELISA, human galectin-7 immobilized at 1 µM, anti-His-tag detection [left panel (1 µM]
T6 construct: Recombinant, made in E. coli; also called human GAL-7; Gal-7
T6 sequence (P47929 whole entry): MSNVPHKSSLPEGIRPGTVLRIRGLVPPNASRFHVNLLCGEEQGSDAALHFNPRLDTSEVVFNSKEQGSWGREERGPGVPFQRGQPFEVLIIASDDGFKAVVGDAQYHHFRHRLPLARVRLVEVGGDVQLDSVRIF
Protocol: as §2, §3

human galectin-1 = target: T7, human galectin-1 (Homo sapiens, UniProt P09382); assay: microscale thermophoresis (MST) binding affinity, human galectin-1
T7 construct: made in house; host or cells: E. coli BL21 (DE3), pET-22b(+)
T7 sequence (P09382 whole entry): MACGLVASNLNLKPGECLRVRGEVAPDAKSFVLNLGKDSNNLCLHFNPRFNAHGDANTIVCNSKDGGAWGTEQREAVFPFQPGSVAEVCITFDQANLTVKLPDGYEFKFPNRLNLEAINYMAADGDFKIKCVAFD
Protocol: (§4) FIGS. 9A-C show the binding affinities evaluated by microscale thermophoresis (MST) using various ligands over a range of 16 ligand concentrations allowing to obtain a full concentration-response curve. FIG. 9A: Red-NHS labeled human GAL-1 (5 nM) incubated with G1N1 or alpha-lactose (a-lactose). FIG. 9B: Red-NHS labeled G1N1 (2 nM) was used to study the affinity of G1N1 for mouse and human galectin-1. […] All experiments were performed in 20 mM Tris-HCl 150 mM NaCl and 0.1% F127. Binding affinities (Kd values) were determined from the fitted curves (three parameter dose-response curve) obtained from data of at least 3 independent experiments. For each value, 95% confidence intervals (Cl) are indicated.
(§5) Microscale thermophoresis (MST. Galectins were labeled using the RED-NHS labeling kit (Nanotemper Technologies, Germany) in accordance with the manufacturer's protocol. Unreacted dye was removed using the provided purification columns. Binding affinity assays were performed in 20 mM Tris-HCl, 150 mM NaCl and 0.1% F127. Samples were loaded into standard Monolith NT.115 capillaries and microscale thermophoresis was measured using a Monolith NT.115 Pico instrument (Nanotemper Technologies, Germany) at ambient temperature. Binding affinities (Kd values) were determined from the fitted curves (three parameter dose-response curve).

[5] = tested on: human galectin-1 versus galectin-2, -7, -13 and -16; assay: ELISA binding of G1N1 to immobilized recombinant human galectins; conditions: human galectins immobilized at 1 and 5 μM; increasing concentrations of G1N1
Protocol: as §2, §3

mouse galectin-1 = target: T8, mouse galectin-1 (Mus musculus, UniProt P16045); assay: microscale thermophoresis (MST) binding affinity, mouse galectin-1; conditions: Red-NHS labeled G1N1 (2 nM); 20 mM Tris-HCl 150 mM NaCl 0.1% F127
T8 construct: made in house; host or cells: E. coli BL21 (DE3), pET-22b(+)
T8 sequence (P16045 whole entry): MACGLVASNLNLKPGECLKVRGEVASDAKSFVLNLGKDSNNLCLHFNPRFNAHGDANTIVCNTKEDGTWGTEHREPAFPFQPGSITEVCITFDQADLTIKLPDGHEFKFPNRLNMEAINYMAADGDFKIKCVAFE
Protocol: as §4, §5

human GAL-7 [6] = target: T9, human GAL-7 (Homo sapiens, UniProt P47929); assay: inhibition of GAL-7-induced apoptosis of Jurkat T cells (annexin V/propidium iodide flow cytometry); type: cell-based; conditions: human GAL-7 10 μM, 4 h at 37° C.
T9 construct: made in house; host or cells: E. coli BL21 (DE3), pET-22b(+)
T9 sequence (P47929 whole entry): as the sequence (P47929 whole entry) above

[7] = target: T10, recombinant human GAL-1 (rhGAL-1) (Homo sapiens, UniProt P09382); assay: inhibition of galectin-1-induced apoptosis of Jurkat T cells (annexin V/propidium iodide flow cytometry); type: cell-based; conditions: rhGAL-1 2.25 μM, 4 h at 37° C., increasing concentrations of nanobody
T10 construct: made in house; host or cells: E. coli BL21 (DE3), pET-22b(+)
T10 sequence (P09382 whole entry): as the sequence (P09382 whole entry) above
Protocol: Briefly, Jurkat T cells were incubated with recombinant human GAL-1 (rhGAL-1; 2.25 μM) for 4h at 37° C. in presence of increasing concentrations of G1N1 and G1N2. Apoptosis was measured by flow cytometry using conventional annexin V/propidium iodide staining. Results represent data recorded on 5000 cells. Errors bars represent standard deviation.
Jurkat T cells were incubated with increasing concentrations of G1N1 pre-incubated with rhGAL-1 (2.25 μM) for 4 h at 37° C., after which apoptosis was measured by flow cytometry using Annexin V/propidium iodide staining. 5000 events were recorded. Errors bars represent standard deviation.
Apoptosis of human T cells. In vitro apoptosis assays were carried out using the standard in vitro human Jurkat T cell model system, fluorescein isothiocyanate (FITC)-labeled annexin V (Biolegend, San Diego, CA, USA) and propidium iodide (PI). Briefly, recombinant galectin-1 was pre-incubated for 1 h at 4° C. in serum free RPMI 1640 medium before addition to Jurkat cells. The mixture was incubated at 37° C. for 4 h. Cells were then washed once in PBS and once in binding buffer (0.01 M HEPES, 0.14 M NaCl, 2.5 mM CaCl2, pH 7.4). For staining, cells were incubated for 15 min with FITC-labeled annexin V in the dark at room temperature. The PI (0.25 μg/mL) stain was added to cells just before analysis by flow cytometry.

human GAL-8 = target: T11, human GAL-8 (Homo sapiens, UniProt O00214); assay: microscale thermophoresis (MST) binding, human GAL-8; conditions: at 10 μM; Red-NHS labeled G1N1 (2 nM)
T11 sequence (O00214 1-317): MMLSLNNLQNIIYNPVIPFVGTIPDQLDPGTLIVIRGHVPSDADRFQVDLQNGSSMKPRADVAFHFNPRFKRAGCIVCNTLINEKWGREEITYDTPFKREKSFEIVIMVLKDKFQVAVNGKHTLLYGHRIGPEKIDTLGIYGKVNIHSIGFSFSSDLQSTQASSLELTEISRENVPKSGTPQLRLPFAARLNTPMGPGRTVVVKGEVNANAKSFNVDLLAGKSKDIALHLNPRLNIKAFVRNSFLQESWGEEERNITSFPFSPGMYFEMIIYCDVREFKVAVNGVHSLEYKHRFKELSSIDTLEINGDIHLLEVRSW
Protocol: as §4, §5

human GAL-7 [8] = target: T9, human GAL-7; assay: microscale thermophoresis (MST) binding, human GAL-7; conditions: at 10 μM; Red-NHS labeled G1N1 (2 nM)
Protocol: as §4, §5

[9] = target: T12, GAL-1-Biotin (biotinylated human GAL-1) (Homo sapiens, UniProt P09382); assay: non-adsorbed phage ELISA of VHH clones on GAL-1-Biotin; type: binding; conditions: HRP-conjugated anti-M13 antibody, TMB substrate; 282 clones tested
T12 construct: made in house; host or cells: E. coli BL21 (DE3), pET-22b(+)
T12 sequence (P09382 whole entry): as the sequence (P09382 whole entry) above
Protocol: Generation and production of single chain camelid antibodies. Galectin-specific single chain (VHH) camelid antibodies were obtained following in vitro screening of a non-immune humanized synthetic single domain antibodies (hsd2Ab) library that contains more than 3×10^9 clones expressed at the surface of M13 phage [Moutel et al., 2016]. The panning was carried out against immobilized recombinant human galectin-1 devoid of carbohydrate in its glycan binding site (GBS). Prior to the phage display selection, galectin-1-biotin and GST-Biotin were bound to streptavidin magnetic beads (Dynabeads® M-280 Streptavidin, Life Technologies) with a 50 nM final concentration of biotinylated protein for the first round and 10 nM final concentration of biotinylated protein for the second and third rounds. […] Following three-rounds of phage display, clones were picked randomly and analyzed by non-adsorbed phage ELISA using HRP-conjugated anti-M13 antibody (GE Healthcare) and a colorimetric substrate (TMB, tetramethylbenzidine, Thermo Fischer).
Following an initial pre-screen round of phage display carried out with GST-biotin to deplete the library from unspecific binders, unbound VHHs were incubated with GAL-1-Biotin beads. […] A total of 282 VHHs were then picked and analyzed by ELISA for galectin-1 binders.

human GAL-13 = target: T13, human GAL-13 (Homo sapiens, UniProt Q9UHV8); assay: microscale thermophoresis (MST) binding, human GAL-13; conditions: at 10 μM; Red-NHS labeled G1N1 (2 nM)
T13 construct: made in house; host or cells: E. coli BL21 (DE3), pET-22b(+)
T13 sequence (Q9UHV8 1-139): T2 sequence
Protocol: as §4, §5

mouse GAL-7 = target: T14, mouse GAL-7 (Mus musculus, UniProt O54974); assay: microscale thermophoresis (MST) binding, mouse GAL-7; conditions: at 10 μM; Red-NHS labeled G1N1 (2 nM)
T14 sequence (O54974 1-136): T1 sequence (looked up)
Protocol: as §4, §5

Molecule | binding result (mouse galectin-7) | binding result (human galectin-13) | binding result (human galectin-2) | Kd [1] [nM] | Kd [2] [nM] | Kd [3] [nM] | fold higher affinity than lactose for galectin-1 [4] [fold] | binding result (human galectin-7) | affinity for galectin-1 relative to the affinity of lactose for galectin-1 (human galectin-1; MST, Red-NHS labeled human GAL-1 (5 nM) with G1N1 or alpha-lactose) | binding affinity (Kd) for human recombinant galectin-1 by MST (human galectin-1; Red-NHS labeled G1N1 (2 nM), 20 mM Tris-HCl 150 mM NaCl 0.1% F127) | specificity for galectin-1 by ELISA against galectin-2, -7, -13 and -16 [5] | binding affinity (Kd) for mouse recombinant galectin-1 by MST (mouse galectin-1) | inhibition of GAL-7-induced apoptosis of Jurkat T cells (human GAL-7 [6]) | inhibition of galectin-1-induced apoptosis of Jurkat T cells [7] | binding to human GAL-8 by MST (human GAL-8) | binding to human GAL-7 by MST (human GAL-7 [8]) | binding in phage ELISA in the presence of GAL-1-Biotin [9] | binding to human GAL-13 by MST (human GAL-13) | binding to mouse GAL-7 by MST (mouse GAL-7)
B1 | no binding (tested: 10 µM) | no binding (tested: 10 µM) | no binding (tested: 10 µM) | 24.6 | 87 | 750 | ~200 | no binding (tested: 10 µM) |  |  |  |  |  |  |  |  |  |  | 
B2 |  |  |  |  |  |  |  |  | approximately 200 fold | in the nanomolar range | specificity of G1N1 for galectin-1 was confirmed | in the nanomolar range | did not inhibit; also recorded: No significant inhibition | strong and significant inhibition | does not bind; also recorded: no binding was detected | does not bind; also recorded: no binding was detected | strong binding; also recorded: strong positive hit | does not bind; also recorded: no binding was detected | does not bind; also recorded: no binding was detected
